# Measured values as given in patent publication US20020151497.
# Assays:
# [1] = target: Syk, endogenous, from WEHI-231 cells (UniProt P48025)
# [2] = target: Lyn-kinase, endogenous, immunoprecipitated from WEHI-231 cells (UniProt P25911)
# [3] = target: T1, CD19, endogenous, immunoprecipitated from WEHI-231 cells (UniProt P25918)
# T1 sequence: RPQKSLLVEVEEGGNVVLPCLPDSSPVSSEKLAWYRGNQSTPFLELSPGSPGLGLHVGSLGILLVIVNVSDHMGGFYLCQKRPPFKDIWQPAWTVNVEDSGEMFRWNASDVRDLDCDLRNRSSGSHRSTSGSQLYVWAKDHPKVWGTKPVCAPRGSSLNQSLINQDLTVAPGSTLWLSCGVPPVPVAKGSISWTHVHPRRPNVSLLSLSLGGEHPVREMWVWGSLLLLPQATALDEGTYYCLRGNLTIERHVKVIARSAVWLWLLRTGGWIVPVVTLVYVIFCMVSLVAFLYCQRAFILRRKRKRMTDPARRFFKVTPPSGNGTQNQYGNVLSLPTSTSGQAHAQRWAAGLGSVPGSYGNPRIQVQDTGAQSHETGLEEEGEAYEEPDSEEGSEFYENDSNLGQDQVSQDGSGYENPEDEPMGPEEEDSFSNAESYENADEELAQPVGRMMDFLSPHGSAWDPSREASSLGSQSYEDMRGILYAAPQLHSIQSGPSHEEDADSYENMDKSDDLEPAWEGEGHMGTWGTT
# Syk, endogenous, from WEHI-231 cells, sequence (P48025 whole entry, looked up): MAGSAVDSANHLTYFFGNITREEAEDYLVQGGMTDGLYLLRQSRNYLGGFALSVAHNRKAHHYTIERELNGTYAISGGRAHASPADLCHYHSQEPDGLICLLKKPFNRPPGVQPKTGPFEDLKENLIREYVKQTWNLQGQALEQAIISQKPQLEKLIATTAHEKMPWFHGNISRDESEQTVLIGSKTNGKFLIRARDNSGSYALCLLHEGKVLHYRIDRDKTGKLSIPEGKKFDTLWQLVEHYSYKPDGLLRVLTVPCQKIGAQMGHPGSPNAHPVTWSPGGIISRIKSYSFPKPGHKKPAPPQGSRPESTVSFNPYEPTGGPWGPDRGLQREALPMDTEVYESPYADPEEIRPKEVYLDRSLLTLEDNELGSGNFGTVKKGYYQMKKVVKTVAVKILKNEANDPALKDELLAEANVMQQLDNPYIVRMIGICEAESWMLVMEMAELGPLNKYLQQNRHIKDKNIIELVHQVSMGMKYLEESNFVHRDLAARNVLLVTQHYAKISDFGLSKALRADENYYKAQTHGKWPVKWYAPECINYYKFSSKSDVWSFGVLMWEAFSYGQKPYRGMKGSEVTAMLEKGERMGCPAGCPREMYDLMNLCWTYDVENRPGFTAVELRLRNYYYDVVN
# Lyn-kinase, endogenous, immunoprecipitated from WEHI-231 cells, sequence (P25911 whole entry, looked up): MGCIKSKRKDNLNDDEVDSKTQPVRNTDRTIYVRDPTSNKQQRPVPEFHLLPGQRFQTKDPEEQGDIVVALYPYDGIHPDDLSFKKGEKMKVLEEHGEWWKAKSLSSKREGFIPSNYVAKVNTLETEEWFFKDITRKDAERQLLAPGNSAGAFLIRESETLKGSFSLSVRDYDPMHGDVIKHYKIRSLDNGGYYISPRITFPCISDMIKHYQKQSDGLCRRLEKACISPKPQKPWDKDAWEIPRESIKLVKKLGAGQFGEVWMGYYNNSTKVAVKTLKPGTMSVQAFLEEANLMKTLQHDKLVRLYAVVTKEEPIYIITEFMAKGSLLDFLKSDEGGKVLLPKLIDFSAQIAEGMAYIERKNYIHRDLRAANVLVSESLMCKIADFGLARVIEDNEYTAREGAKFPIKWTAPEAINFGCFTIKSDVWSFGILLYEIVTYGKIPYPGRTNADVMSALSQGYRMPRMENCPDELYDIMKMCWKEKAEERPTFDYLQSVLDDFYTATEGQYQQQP
substance,measurement,setting,value
exogenous Lyn (5 units added to the kinase assay),"phosphorylation level of immunoprecipitated Syk (anti-phosphotyrosine Western blot) with exogenous Lyn and 0, 10, 50 and 100 µM K055H302",[1],"Lyn, CD19 and Syk all showed dose-dependent decreased phosphorylation in the presence of the compound of the invention"
same,"phosphorylation level of immunoprecipitated Lyn (anti-phosphotyrosine Western blot) with exogenous Lyn and 0, 10, 50 and 100 µM K055H302",[2],"Lyn, CD19 and Syk all showed dose-dependent decreased phosphorylation in the presence of the compound of the invention"
same,"phosphorylation level of immunoprecipitated CD19 (anti-phosphotyrosine Western blot) with exogenous Lyn and 0, 10, 50 and 100 µM K055H302",[3],"Lyn, CD19 and Syk all showed dose-dependent decreased phosphorylation in the presence of the compound of the invention"
